Test [1] addresses recombinant full-length delta PKC (rat). The test is described as follows: ELISA, presence of calcium. (An ELISA detects its analyte on a solid surface through an enzyme-linked reagent.)
The target is the same in test [2]. Put plainly: ELISA, absence of calcium.
For test [3], the target named is annexin V protein (human) (UniProt P08758). The test is described as follows: ELISA, annexin V immobilised, absence of calcium.
The target is the same in test [4]. The test is described as follows: ELISA, annexin V immobilised, presence of calcium.

Chain of annexin V protein (human) (P08758 2-320 limits assumed): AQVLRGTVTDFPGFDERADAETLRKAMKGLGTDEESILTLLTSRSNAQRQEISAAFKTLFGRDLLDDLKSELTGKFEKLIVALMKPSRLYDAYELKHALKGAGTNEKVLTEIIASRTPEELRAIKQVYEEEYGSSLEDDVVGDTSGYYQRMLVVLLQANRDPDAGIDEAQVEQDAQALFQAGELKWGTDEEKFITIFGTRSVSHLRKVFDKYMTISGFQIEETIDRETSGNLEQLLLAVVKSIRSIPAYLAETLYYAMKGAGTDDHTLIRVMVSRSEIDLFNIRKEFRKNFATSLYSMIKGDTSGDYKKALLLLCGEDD

Consider “annexin V protein (from UniProt P08758 2-320)”, for which the percent binding came out at 100% in test [1] and 75% in test [2].

As for “delta V1 PKC (from UniProt P09215 1-160)”, the percent binding in test [3] turned out to be 55%; in test [4], 100%.

The record behind these values is patent US20090155236A1, “Peptide sequence for modulation of delta protein kinase c” (NATIONAL INSTITUES OF HEALTH (NIH), U.S. DEPT OF HEALTH AND …, priority 2004, published 2009).
